Experiments:
[1] = biological target: VAMPtide (o-Abz/Dnp) (List Biological Laboratories, Inc.); experiment: cell-based or functional assay
[2] = biological target: PL150 (Pharmaleads): [(Ac-60-94)VAMP](Pya74,Nop77); experiment: cell-based or functional assay
[3] = biological target: GST-Synaptotagmin II (SytII) fusion protein (rat)

Substance | limit of detection of the toxin by VAMPtide cleavage [1] | lowest toxin concentration detected by substrate cleavage (fluorescence) [1] | lowest toxin concentration detected by substrate cleavage (fluorescence) [2] | increase of binding at pH 5.2 against pH 7.2 [3]
BoNT/B complex from C. botulinum strain Okra B (Metabiologics Inc.) (from UniProt B1INP5 2-1291) | 5 nM |  |  | 
purified 150 kDa BoNT/B from C. botulinum strain Okra B (Metabiologics Inc.) | 2 nM | 2 nM | 10 pM | 100%

Reference: patent US20140287433A1
